Measurements taken from paper PMC6704128, “Binding of the protein ICln to α-integrin contributes to the activation of ICl_(swell) current” (Scientific Reports, 2019).

B1: integrin peptide (1018)MWKVGFFKRNR(1028) (peptide)
peptide: MWKVGFFKRNR
notes: integrin αIIb chain, human, residues 1018-1028; numbers count on NCBI NP_000410.2; also called integrin αIIb peptide with the KVGFFKR motif; source: synthetic peptide
B2: CFP-ICln (Canis familiaris ICln, wild type, CFP fused to the N-terminus) (natural protein, UniProt P35521 1-235, looked up)
chain: MSFLKSFPPPGSAEGLRQQQPETEAVLNGKGLGTGTLYIAESRLSWLDGSGLGFSLEYPTISLHAVSRDLNAYPREHLYVMVNAKFGEESKESVAEEEDSDDDVEPIAEFRFVPSDKSALEAMFTAMCECQALHPDPEDEDSDDYDGEEYDVEAHEQGQGDIPTFYTYEEGLSHLTAEGQATLERLEGMLSQSVSSQYNMAGVRTEDSTRDYEDGMEVDTTPTVAGQFEDADVDH
notes: ICln, Canis familiaris (cDNA from the MDCK cell line), ORF of full length ICln; NCBI NP_001003288.1; The same construct was used in two cell lines (NIH-3T3 and HEK293 Phoenix); the assays tell them apart; also called CFP-ICln wt; cICln; source: NIH-3T3 fibroblasts or HEK293 Phoenix cells, transiently transfected (pECFP-C1), in cells; not shown: CFP, N-terminal, kept

Columns and labels:
[1] = molecular target: T1, TcICln (truncated Canis familiaris ICln, ICln159X), N-terminal His6-tagged (Canis familiaris, UniProt P35521 1-158); experiment: NMR titration; 1H-15N HSQC of 15N-labelled ICln (0.8 mM) without and with the integrin peptide (equimolar amount for TcICln); 50 mM K2HPO4, pH 6.6, 90% H2O/10% D2O, 25 °C, 800 MHz; conditions: both partners purified
T1 construct: ICln, Canis familiaris, truncation mutant ICln159X lacking the C-terminal part (stop at position 159); pleckstrin homology domain-like fold; NCBI NP_001003288.1; Uniformly 15N-labelled; The last residue (158) is worked out from the name ICln159X; also called truncated form of cICln; source: E. coli BL21(DE3), purified (IMAC HisTrap, Superdex 75)
T1 sequence (looked up): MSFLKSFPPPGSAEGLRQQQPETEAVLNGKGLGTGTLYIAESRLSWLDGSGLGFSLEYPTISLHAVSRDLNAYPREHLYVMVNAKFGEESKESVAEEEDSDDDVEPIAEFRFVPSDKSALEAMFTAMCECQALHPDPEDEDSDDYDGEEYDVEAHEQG

[2] = molecular target: T2, αIIbs-YFP (transmembrane and intracellular portion, amino acids 987-1039, of the human integrin αIIb chain, … (human, UniProt P08514-1 987-1039)); experiment: FRET or BRET; acceptor photobleaching; HEK293 Phoenix cells; FRET efficiency in 4-5 plasma membrane ROIs of each cell; conditions: partners not purified
T2 construct: integrin αIIb chain, human, amino acids 987-1039 (transmembrane and intracellular portion); numbers count on NCBI NP_000410.2; The methods say 'YFP was fused to the Ct of ICln'; also called αIIb-short; αIIb short; source: NIH-3T3 fibroblasts or HEK293 Phoenix cells, transiently transfected (pEYFP-N1), in cells; not shown: YFP, C-terminal, kept
T2 sequence (P08514 987-1039): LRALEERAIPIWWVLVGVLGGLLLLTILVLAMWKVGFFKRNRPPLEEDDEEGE

[3] = molecular target: T2, αIIbs-YFP (transmembrane and …); experiment: FRET or BRET; acceptor photobleaching; living NIH-3T3 fibroblasts in isotonic solution; CFP donor, YFP acceptor; FRET efficiency in three plasma membrane ROIs of each cell; conditions: partners not purified

| Binder | binding result [1] | ratio of the FRET efficiency to that of CFP and αIIbs-YFP [2] | ratio of the FRET efficiency to that of CFP and αIIbs-YFP [3] |
| --- | --- | --- | --- |
| B1 | binds |  |  |
| B2 |  | 2.7 | 2.9 |
